Assay results published in article PMC9352680, “A comprehensive thermodynamic model for RNA binding by the Saccharomyces cerevisiae Pumilio protein PUF4”.
Residue numbers refer to the chain shown, from its start. In names and notes the source's numbering stands.

Molecular target: T1, PUF4 RNA-binding domain (Saccharomyces cerevisiae, UniProt P25339 537-888)
T1 sequence: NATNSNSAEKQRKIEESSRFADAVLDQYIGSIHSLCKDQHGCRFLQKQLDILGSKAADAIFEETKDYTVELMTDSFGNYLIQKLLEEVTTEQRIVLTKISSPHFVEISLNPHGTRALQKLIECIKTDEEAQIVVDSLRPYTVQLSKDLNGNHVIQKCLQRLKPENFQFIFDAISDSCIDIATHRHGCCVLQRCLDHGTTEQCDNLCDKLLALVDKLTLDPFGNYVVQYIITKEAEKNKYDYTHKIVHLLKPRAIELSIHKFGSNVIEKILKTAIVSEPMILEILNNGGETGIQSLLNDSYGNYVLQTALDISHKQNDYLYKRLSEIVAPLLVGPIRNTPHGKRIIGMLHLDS
Experiment: Mg; RNA-MaP; 20 mM Na-HEPES pH 7.4, 30 mM KOAc, 0.75 mM MgCl2, 0.1% Tween-20, 5% glycerol, 0.1 mg/mL BSA, 2 mM DTT; 25 C; 0.0125-409.6 nM protein
Conditions: tags: N-His6-TEV cleaved; C-SNAP kept, Cy3B-labelled; label: tethered on chip by stalled RNA polymerase

B1: Ic_S1_P5E.1_K5.1_C5.1_H5.1_A5.1_[T5C]_F5.1_[T9C]_T5.1 (ssRNA)
RNA: UCUCUUUGUACUAUCAUCUCUU
- Kd: 17.8 nM

B2: Id_ii_S2_P5E.3_K5.2_C5.2_H5.2_A5.1_F5.1_T5.2_[T11C] (ssRNA)
RNA: UUUGAUUAAUAUGAUAUCGUUCUUUCUCUUAUAUUAUUACAUUCUUUCUCGAUAUCAUAUUAAUCUUU
- Kd: 103 nM

B3: Id_ii_S2_P5E.4_K5.3_C5.2_[C-2G]_H5.3_A5.1_F5.1_T5.2_[T11C]_[A12T] (ssRNA)
RNA: B2 RNA with C28G, U30A, A31C, U32A, A33C, A41U
- Kd: 11 nM

B4: Id_ii_S2_P5E.3_K5.2_C5.2_H5.2_A5.1_F5.1_T5.2_[A12C] (ssRNA)
RNA: B2 RNA with C40U, A41C
- Kd: 65.7 nM

B5: Id_ii_S2_P5E.4_K5.3_C5.2_[C-2G]_H5.3_A5.1_F5.1_T5.2_[T11A]_[A12T] (ssRNA)
RNA: B2 RNA with C28G, U30A, A31C, U32A, A33C, C40A, A41U
- Kd: 1.37 nM

B6: Id_ii_S2_P5E.4_K5.3_C5.2_[C-2G]_H5.3_A5.1_F5.1_T5.2_[T11A] (ssRNA)
RNA: B2 RNA with C28G, U30A, A31C, U32A, A33C, C40A
- Kd: 1.43 nM

B7: Id_ii_S2_P5E.4_K5.3_C5.2_[C-2T]_[T-1C]_H5.3_A5.1_F5.1_T5.2_[T11C]_[A12G] (ssRNA)
RNA: B2 RNA with C28U, U29C, U30A, A31C, U32A, A33C, A41G
- Kd: > 2300 nM

B8: Id_ii_S2_P5E.4_K5.3_C5.2_[C-2G]_[T-1C]_H5.3_A5.1_F5.1_T5.2_[A12T] (ssRNA)
RNA: B2 RNA with C28G, U29C, U30A, A31C, U32A, A33C, C40U, A41U
- Kd: 341 nM

B9: Id_ii_S2_P5E.4_K5.3_C5.2_[C-2G]_[T-1C]_H5.3_A5.1_F5.1_T5.2_[T11C] (ssRNA)
RNA: B2 RNA with C28G, U29C, U30A, A31C, U32A, A33C
- Kd: 729 nM

B10: Id_ii_S2_P5E.4_K5.3_C5.2_[C-2G]_H5.3_A5.1_F5.1_T5.2_[T11A]_[A12C] (ssRNA)
RNA: B2 RNA with C28G, U30A, A31C, U32A, A33C, C40A, A41C
- Kd: 2.19 nM

B11: Id_ii_S2_P5E.3_K5.2_C5.2_H5.2_A5.1_F5.1_T5.2_[T11A]_[A12C] (ssRNA)
RNA: B2 RNA with C40A, A41C
- Kd: 230 nM

B12: Id_ii_S2_P5E.4_K5.3_C5.2_[C-2G]_H5.3_A5.1_F5.1_T5.2 (ssRNA)
RNA: B2 RNA with C28G, U30A, A31C, U32A, A33C, C40U
- Kd: 2.21 nM

B13: Id_ii_S2_P5E.4_K5.3_C5.2_[C-2G]_[T-1C]_H5.3_A5.1_F5.1_T5.2_[T11C]_[A12T] (ssRNA)
RNA: B2 RNA with C28G, U29C, U30A, A31C, U32A, A33C, A41U
- Kd: 409 nM

B14: Id_ii_S2_P5E.3_K5.2_C5.2_H5.2_A5.1_F5.1_T5.2_[T11A]_[A12T] (ssRNA)
RNA: B2 RNA with C40A, A41U
- Kd: 234 nM

B15: Id_ii_S2_P5E.4_K5.3_C5.2_[C-2G]_H5.3_A5.1_F5.1_T5.2_[T11C]_[A12C] (ssRNA)
RNA: B2 RNA with C28G, U30A, A31C, U32A, A33C, A41C
- Kd: 3.03 nM

B16: Id_ii_S2_P5E.4_K5.3_C5.2_[C-2T]_[T-1C]_H5.3_A5.1_F5.1_T5.2_[T11C]_[A12C] (ssRNA)
RNA: B2 RNA with C28U, U29C, U30A, A31C, U32A, A33C, A41C
- Kd: > 2300 nM

B17: Id_ii_S2_P5E.4_K5.3_C5.2_[C-2G]_[T-1C]_H5.3_A5.1_F5.1_T5.2_[T11C]_[A12G] (ssRNA)
RNA: B2 RNA with C28G, U29C, U30A, A31C, U32A, A33C, A41G
- Kd: > 2300 nM

B18: Id_ii_S2_P5E.4_K5.3_C5.2_[C-2G]_[T-1C]_H5.3_A5.1_F5.1_T5.2_[T11A]_[A12C] (ssRNA)
RNA: B2 RNA with C28G, U29C, U30A, A31C, U32A, A33C, C40A, A41C
- Kd: 451 nM

B19: Id_ii_S2_P5E.4_K5.3_C5.2_[C-2G]_[T-1C]_H5.3_A5.1_F5.1_T5.2_[A12C] (ssRNA)
RNA: B2 RNA with C28G, U29C, U30A, A31C, U32A, A33C, C40U, A41C
- Kd: 359 nM

B20: Id_ii_S2_P5E.3_K5.2_C5.2_H5.2_A5.1_F5.1_T5.2_[A12T] (ssRNA)
RNA: B2 RNA with C40U, A41U
- Kd: 110 nM

B21: Id_ii_S2_P5E.4_K5.3_C5.2_[C-2G]_[T-1C]_H5.3_A5.1_F5.1_T5.2_[T11A]_[A12T] (ssRNA)
RNA: B2 RNA with C28G, U29C, U30A, A31C, U32A, A33C, C40A, A41U
- Kd: 408 nM

B22: Id_ii_S2_P5E.4_K5.3_C5.2_[C-2G]_[T-1C]_H5.3_A5.1_F5.1_T5.2_[T11A] (ssRNA)
RNA: B2 RNA with C28G, U29C, U30A, A31C, U32A, A33C, C40A
- Kd: 549 nM

B23: Id_ii_S2_P5E.4_K5.3_C5.2_[C-2G]_H5.3_A5.1_F5.1_T5.2_[A12T] (ssRNA)
RNA: B2 RNA with C28G, U30A, A31C, U32A, A33C, C40U, A41U
- Kd: 1.25 nM

B24: Id_ii_S2_P5E.4_K5.3_C5.2_[C-2G]_H5.3_A5.1_F5.1_T5.2_[A12C] (ssRNA)
RNA: B2 RNA with C28G, U30A, A31C, U32A, A33C, C40U, A41C
- Kd: 1.12 nM

B25: Ib_S1_P5E.1_K5.1_C5.1_H5.1_A5.1_[T5A]_F5.1_[T9G]_T5.1 (ssRNA)
RNA: UCUCUUUGUAAUAUGAUCUCUU
- Kd: 22.3 nM
